Measured values taken from patent publication US6835378B2, “Method and compositions for inhibiting thrombin-induced coagulation” (The Texas A&M University System University, priority 2001, dated 2004).
“Also recorded” adds a separate entry of the source.

Target: T1, thrombin digested Fg (Homo sapiens, UniProt P02675)
T1 construct: purchased Enzyme Research Labs
T1 sequence (P02675 45-491 limits assumed): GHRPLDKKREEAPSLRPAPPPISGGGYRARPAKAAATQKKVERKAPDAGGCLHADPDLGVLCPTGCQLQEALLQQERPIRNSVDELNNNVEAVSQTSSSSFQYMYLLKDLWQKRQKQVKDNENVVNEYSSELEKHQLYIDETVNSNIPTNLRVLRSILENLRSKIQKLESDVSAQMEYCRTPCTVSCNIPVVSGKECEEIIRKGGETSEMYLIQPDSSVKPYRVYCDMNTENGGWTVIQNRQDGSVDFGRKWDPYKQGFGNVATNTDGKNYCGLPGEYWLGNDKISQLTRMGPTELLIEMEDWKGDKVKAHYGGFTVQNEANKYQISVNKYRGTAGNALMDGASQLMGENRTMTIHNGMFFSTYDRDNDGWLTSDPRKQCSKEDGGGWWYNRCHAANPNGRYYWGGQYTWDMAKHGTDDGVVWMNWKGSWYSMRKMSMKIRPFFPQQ
T1 sequence (P02671 36-629 partner limits assumed): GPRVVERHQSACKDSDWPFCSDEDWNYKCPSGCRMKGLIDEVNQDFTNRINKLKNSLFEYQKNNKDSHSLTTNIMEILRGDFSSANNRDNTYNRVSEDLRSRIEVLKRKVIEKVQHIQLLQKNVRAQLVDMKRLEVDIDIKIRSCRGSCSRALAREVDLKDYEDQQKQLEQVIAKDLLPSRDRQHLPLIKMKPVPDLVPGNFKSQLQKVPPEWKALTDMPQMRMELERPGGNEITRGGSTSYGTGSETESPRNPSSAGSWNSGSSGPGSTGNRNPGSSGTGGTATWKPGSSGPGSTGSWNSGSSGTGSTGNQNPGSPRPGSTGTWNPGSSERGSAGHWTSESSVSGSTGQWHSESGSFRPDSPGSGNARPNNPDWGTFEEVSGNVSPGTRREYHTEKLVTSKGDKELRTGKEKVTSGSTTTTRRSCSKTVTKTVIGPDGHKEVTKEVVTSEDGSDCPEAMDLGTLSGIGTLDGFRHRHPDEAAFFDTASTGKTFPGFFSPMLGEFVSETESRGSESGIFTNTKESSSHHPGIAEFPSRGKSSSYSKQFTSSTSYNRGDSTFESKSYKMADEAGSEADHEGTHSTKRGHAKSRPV
T1 sequence (P02679 27-437 isoform P02679-2 partner limits assumed): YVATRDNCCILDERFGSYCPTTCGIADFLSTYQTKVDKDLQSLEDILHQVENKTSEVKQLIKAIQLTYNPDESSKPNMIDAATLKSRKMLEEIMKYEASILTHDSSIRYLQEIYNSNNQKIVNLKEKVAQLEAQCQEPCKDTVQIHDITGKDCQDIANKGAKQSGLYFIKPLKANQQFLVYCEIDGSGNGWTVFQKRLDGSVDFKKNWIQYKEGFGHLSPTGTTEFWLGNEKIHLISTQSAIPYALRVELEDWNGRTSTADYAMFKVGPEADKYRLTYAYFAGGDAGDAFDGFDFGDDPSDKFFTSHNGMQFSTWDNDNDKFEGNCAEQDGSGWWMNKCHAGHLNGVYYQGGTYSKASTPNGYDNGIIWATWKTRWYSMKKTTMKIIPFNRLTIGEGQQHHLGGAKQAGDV
Assay: ELISA with thrombin-digested Fg
Assay type: binding
Settings: Fg wells pretreated with thrombin 30 min 37° C.
Experimental: For the ELISA with thrombin-digested Fg, the plate was coated with Fg and blocked as described above. The plate was washed three times with PBST and 50 μl of 1.0 NIH unit/ml of thrombin was added to the Fg coated wells. The plate was incubated at 37° C. for 30 min. The plate was washed three times with PBST and 50 μl of 1.0 NIH unit/ml of hirudin (Sigma) was added to the wells and incubated at 37° C. for 30 min. The plate was washed three times with PBST and blocked with 1% BSA for 1 h at room temperature. After washing three times with PBST, 100 μl of biotin labeled rSdrG(50-597) (25-1000 nM) or a rSdrG(50-597)/hirudin (1.0 NIH unit/ml) mixture was added to the wells and incubated for 1 h at room temperature. The plate was washed three times with PBST and a 1:5000 dilution of streptavidin-AP conjugated (Boehringer Mannheim) in PBST/0.1% BSA was added to the wells for 1 h at room temperature. The plate was washed three times with PBST and developed as described above.

B1: rSdrG(50-597): recombinant His-tagged A region (residues 50-597) of SdrG, a fibrinogen-binding MSCRAMM from S. epidermidis (protein)
chain: HHHHHHAEENTVQDVKDSNMDDELSDSNDQSSNEEKNDVINNSQSINTDDDNQIKKEETNSNDAIENRSKDITQSTTNVDENEATFLQKTPQDNTQLKEEVVKEPSSVESSNSSMDTAQQPSHTTINSEASIQTSDNEENSRVSDFANSKIIESNTESNKEENTIEQPNKVREDSITSQPSSYKNIDEKISNQDELLNLPINEYENKVRPLSTTSAQPSSKRVTVNQLAAEQGSNVNHLIKVTDQSITEGYDDSDGIIKAHDAENLIYDVTFEVDDKVKSGDTMTVNIDKNTVPSDLTDSFAIPKIKDNSGEIIATGTYDNTNKQITYTFTDYVDKYENIKAHLKLTSYIDKSKVPNNNTKLDVEYKTALSSVNKTITVEYQKPNENRTANLQSMFTNIDTKNHTVEQTIYINPLRYSAKETNVNISGNGDEGSTIIDDSTIIKVYKVGDNQNLPDSNRIYDYSEYEDVTNDDYAQLGNNNDVNINFGNIDSPYIIKVISKYDPNKDDYTTIQQTVTMQTTINEYTGEFRTASYDNTIAFSTSSGQGQGDLPPE
What does the source list for B1?
binding to thrombin digested Fg: significantly impaired; also recorded: unable to bind; binding to thrombin digested Fg (listed as SdrG): could not bind; also recorded: does not bind
